Assay results from publication PMC6482854.

Tests used:
[1] = target: P22 coat protein (bacteriophage P22) (UniProt P26747); experiment: SEC-MALS
[2] = target: P22-StAv particles (in vitro assembled) (bacteriophage P22 | not stated) (UniProt P26747); experiment: SEC-MALS

Chain of UniProt P26747 (P26747 whole entry): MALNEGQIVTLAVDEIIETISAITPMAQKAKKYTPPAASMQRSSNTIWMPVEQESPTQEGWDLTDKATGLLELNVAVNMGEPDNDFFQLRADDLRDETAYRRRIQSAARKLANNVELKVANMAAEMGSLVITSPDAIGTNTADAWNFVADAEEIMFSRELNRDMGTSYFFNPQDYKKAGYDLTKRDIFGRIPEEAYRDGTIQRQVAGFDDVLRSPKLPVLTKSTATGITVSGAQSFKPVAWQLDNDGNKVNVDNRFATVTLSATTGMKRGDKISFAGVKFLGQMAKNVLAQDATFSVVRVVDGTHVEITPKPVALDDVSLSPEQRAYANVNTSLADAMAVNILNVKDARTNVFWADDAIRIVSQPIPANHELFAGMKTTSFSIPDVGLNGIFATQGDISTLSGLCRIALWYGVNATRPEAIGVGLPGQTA

Substance	copies of StAv-SP per capsid (copies per capsid) [1]	stoichiometry N (copies per capsid) [2]
6xhis-StAv(15–159)-GAAG-ENLYFQS-GAAG-SP(142–303) (from UniProt P26748 142-303)	328	
biotinylated Cys-6xhis-SP(142–303)-GGGGG-ENLYFQS-GGGGG-GFP (from UniProt P26748 142-303)		36
